Laboratory results: patent US20120277143A1 (Janssen / Centocor, published 2012)

T1: human IL4 (human, UniProt P05112 25-153, biotinylated in the SPR and competition assays (sites not given))
T1 sequence: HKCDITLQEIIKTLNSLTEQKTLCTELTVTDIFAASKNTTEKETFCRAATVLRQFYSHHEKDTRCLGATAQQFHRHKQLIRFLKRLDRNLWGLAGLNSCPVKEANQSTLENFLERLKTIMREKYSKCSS


Key:
human IL4 [1] = biological target: T1, human IL4; experiment: cell-based or functional assay
human IL4 [2] = biological target: T1, human IL4; experiment: Luminex competition, 67 pM biotin-IL4 binding to IL4RA-Fc beads
Protocol: For biotinylation of IL4, recombinant human IL4 (Peprotech) was biotinylated at a 4:1 ratio using EZ-Link NHS-LC-Biotin (Pierce, #21336) for 2 hours at RT. The protein was dialyzed in PBS overnight to remove excess biotinylation reagent. Competition binding for cynomologous IL4 (SEQ ID NO: 5) was performed using the isolated protein biotinylated in the same manner.
AR protein inhibition of IL4 binding to IL4 RA was assessed using IL4 RA-Fc (R&D Systems), comprising the Gly24-His232 which represents the ECD (SEQ ID NO: 5) fused to a human IgGl-Fc and therefor a disulfide linked homodimer. The protein was conjugated to carboxylated Luminex microspheres according to the manufacturer's protocol. For neutralization experiments, 5000 IL4RA-Fc conjugated beads in 50 μl were added to each well of a 96-well filter plate (Millipore). Biotinylated human IL4 was mixed with an appropriate dilution of AR protein in Luminex Assay Buffer (PBS, 1% BSA, pH 7.4) to give a final concentration of 67 pM IL4. The plate was incubated for 1 hour at RT in the dark on a plate shaker, set to shake vigorously to avoid bead aggregation. The plate was washed twice with 150 μl of wash buffer (PBS, 0.1% BSA, pH 7.4, 0.05% Tween-20) using a vacuum manifold followed by the addition of 50 μl of Streptavidin PE at 25 μg/ml and incubated at RT for 20 minutes. The plates were washed again and 150 μl of sheath fluid was added and the plate was placed on the shaker for 5 minute. Plates were read using a Luminex® 100 system; data were plotted as a function of AR protein concentration. IC₅₀ values were determined by fitting the data to the equation for sigmoidal dose response using PRISM software (GraphPAD PRISM) (Table 6).

human IL4 [3] = biological target: T1, human IL4; experiment: SPR ProteOn, biotin-IL4 on neutravidin chip, 1:1 fit
Protocol: Purified binders selected as “hits” were ranked by their affinity on a ProteOn XPR-36 instrument (Bio-Rad). ProteOn is an optical biosensor instrument that measures protein-protein interactions in real time, based on Surface Plasmon Resonance technology similar to Biacore (GE). A rapid experimental protocol was performed as follows: On a GLC sensor chip (Bio-Rad), Neutravidin (Thermo Scientific) was covalently immobilized to a density of >5000 RU using amine coupling chemistry as described by the manufacturer. On one flow cell, biotinylated IL4 (Peprotech) was immobilized to a level of 250 RU, while another flow cell was used as reference, with neutravidin immobilized only. […] The retrieved values were used to rank the AR proteins by their affinity.

human IL13 [4] = biological target: T2, human IL13 (human, UniProt P35225 35-146, biotinylated in the SPR assays (sites not given)); experiment: SPR BIAcore, biotin-IL13 on SA chip, global fit
T2 construct: Peprotech; also called hIL13; recombinant human IL13
T2 sequence (P35225 other isoform, or with tags, fused parts or gaps limits assumed): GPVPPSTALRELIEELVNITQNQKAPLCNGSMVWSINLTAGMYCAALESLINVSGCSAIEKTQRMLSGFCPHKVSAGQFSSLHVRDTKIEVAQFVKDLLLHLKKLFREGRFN
Protocol: Recombinant human IL13 (Peprotech) was minimally biotinylated on ice using sulfo-NHS-LCLC-Biotin and desalted into the experimental running buffer containing 10 mM HEPES, 150 mM NaCl, pH 7.4, 0.01% Tween-20, and 0.1 mg/mL BSA. Biotinylated IL13 was captured at three different surface densities (from about 150, 50, and 25 RU) onto three different BIAcore SA (streptavidin) sensor chips. Each binding protein sample was tested at 40 nM as the highest concentration in a 3-fold dilution series over the three different density IL13 surfaces. The dissociation phase for the highest concentration of the binding protein sample was monitored for one hour. The response data from each of the different density surfaces was globally fitted in order to extract estimates of the kinetic and affinity constants which are provided in Table 7 below.

human IL13 R130Q = biological target: T3, human IL13 R130Q (human, UniProt P35225 35-146, biotinylated (sites not given)); experiment: Luminex competition, 80 pM biotin-IL13 R130Q binding to IL13Ra2-Fc beads
T3 construct: Peprotech; also called IL13R13Q; R111Q
T3 sequence (P35225 35-146 limits assumed, stated change not applied): as the sequence (P35225 other isoform, or with tags, fused parts or gaps limits assumed) above, with R110Q counted along it
Protocol: Binding protein inhibition of IL13 binding to Rα2 was assessed using IL13Rα2-Fc (R&D Systems) conjugated to carboxylated Luminex microspheres according to the manufacturer's protocol. For biotinylation of IL13, recombinant human IL13 R130Q (Peprotech) was biotinylated at a 4:1 ratio using EZ-Link NHS-LC-Biotin (Pierce, #21336) for 2 hours at RT. The protein was dialyzed in PBS overnight to remove excess biotinylation reagent. For neutralization experiments, 5000 IL13 Rα2-Fc conjugated beads in 50 μl were added to each well of a 96-well filter plate (Millipore). 50 μl of biotinylated human IL13 at 1 ng/ml (80 pM) was mixed with an appropriate dilution of binding protein in Luminex Assay Buffer (PBS, 1% BSA, pH 7.4). The plate was incubated for 1 hour at RT in the dark on a plate shaker, set to shake vigorously to avoid bead aggregation. The plate was washed 3 times with 150 μl of wash buffer (PBS, 1% BSA, pH 7.4, 0.05% Tween-20) using a vacuum manifold followed by the addition of 50 μl of Streptavidin PE at 25 μg/ml and incubated at RT for 20 minutes. The plates were washed again and 100 μl of sheath fluid was added and the plate was placed on the shaker for 1 minute. Plates were read using a Luminex® 100 system; data were plotted as a function of binding protein concentration. IC₅₀ values were determined by fitting the data to the equation for sigmoidal dose response using PRIZM software (GraphPAD PRIZM).

human IL13 [5] = biological target: T2, human IL13; experiment: cell-based or functional assay
cyno IL13 = cyno IL13 (cynomolgus monkey, UniProt Q0PW92 21-132); experiment: cell-based or functional assay
Sequence of cyno IL13 (Q0PW92 entry or part of it): as the sequence (P35225 other isoform, or with tags, fused parts or gaps limits assumed) above, with G1S, R10K, M42V, S67N, H83R, L100V, R110Q counted along it

Binder | A549 TARC Inhibition IC50 (human IL4 [1]) [nM] | HEK Stat6 Inhibition IC50 (human IL4 [1]) [nM] | Type 1 Complex inhibition IC50 (human IL4 [1]) [nM] | IC50 (human IL4 [2]) [nM] | Kd (human IL4 [3]) [nM] | koff (human IL4 [3]) [s⁻¹] | kon (human IL4 [3]) [M⁻¹ s⁻¹] | Kd (human IL13 [4]) [nM] | koff (human IL13 [4]) [s⁻¹] | kon (human IL13 [4]) [M⁻¹ s⁻¹] | IC50 (human IL13 R130Q) [nM] | STAT6 Phospho IC50 (human IL13 [5]) [nM] | TARC expression IC50 (human IL13 [5]) [nM] | Cyno IL13 STAT6 IC50 (cyno IL13) [nM]
C06_53G6 (designed binder, ankyrin repeat protein; His-tagged, IMAC-purified) NLGKKLLEAARAGQDDEVRILMANGADVNATDDWGDTLLHLAATDGHLEIVEVLLKYGADVNANDAIGDTPLHLAALYGHLEIVEVLLKYGADVNATDLHGFTPLHLAAFWGHLEIVEVLLKHGADVNAQDKFGKTAFDISIDNGNEDLAEILQKLN | 0.135 | 0.0021 | 0.0009 | 0.0161 | 0.0734 | 5.11e-05 | 696000 |  |  |  |  |  |  | 
C06_6E9 (designed binder, ankyrin repeat protein; His-tagged, IMAC-purified) DLGKKLLEAARAGQDDEVRILMANGADVNAIDSDGTTPLHLAAMDGHLEIVEVLLKYGADVNAVDWNGDTPLHLAAVDGHLEIVEVLLKYGADVNAQDNLGDTPLHLAAYYGHLEIVEVLLKHGADVNASDFHGITPLHLAAFSGHLEIVEVLLKYGADVNAQDKFGKTAFDISIDNGNEDLAEILQKLN | 0.131 | 0.0006 | 0.0004 | 0.0076 | 0.0749 | 7.16e-05 | 956000 |  |  |  |  |  |  | 
7D2 (designed binder, N-Cap-(AR)3-C-Cap) DLGKKLLEAARAGQDDEVRILMANGADVNAFDDFGSTPLHLAARSGHLEIVEVLLKHGADVNAHDMIGDTPLHLAAYHGHLEIVEVLLKYGADVNAKDTSGTTPLHLAADSGHLEIVEVLLKHGADVNAQDKFGKTAFDISIDNGNEDLAEILQKLN |  |  |  |  |  |  |  | 0.0955 | 0.000292 | 3.06e+06 | 0.0083 | 0.0048 | 0.0146 | 0.307
5D12 (designed binder, N-Cap-(AR)3-C-Cap) DLGKKLLEAARAGQDDEVRILMANGADVNAVDDYGSTPLHLAARQGHLEIVEVLLKNGADVNADDFIGDTPLHLAAFKGHLEIVEVLLKNGADVNASDITGETPLHLAATAGHLEIVEVLLKHGADVNAQDKFGKTAFDISIDNGNEDLAEILQKLN |  |  |  |  |  |  |  | 0.168 | 0.000184 | 1.1e+06 | 0.0102 | 0.0054 | 0.0341 | 0.159
5H7 (designed binder, N-Cap-(AR)3-C-Cap) DLGKKLLEAARAGQDDEVRILMANGADVNAADMYGTTPQHLAARTGHLEIVEVLLKYGADVNAADFLGDTPLHLAAYHGHLEIVEVLLKHGADVNASDITGETPLHLAAHLGHLEIVEVLLKYGADVNAQDKFGKTAFDISIDNGNEDLAEILQKLN |  |  |  |  |  |  |  | 0.263 | 0.000894 | 3.4e+06 | 0.158 | 0.0429 | 0.132 | 0.527
6D4 (designed binder, N-Cap-(AR)3-C-Cap) DLGKKLLEAARAGQDDEVRILMANGADVNAADDYGSTPLHLAARSGHLEIVEVLLKHGADVNANDFIGDTPLHLAAYNGHLEIVEVLLKNGADVNATDITGETPLHLAAERGHLEIVEVLLKNGADVNTQDKFGKTAFDISIDNGNEDLAEILQKLN |  |  |  |  |  |  |  | 0.0776 | 9.08e-05 | 1.17e+06 | 0.0048 | 0.0042 | 0.0833 | 0.0513
7C6 (designed binder, N-Cap-(AR)3-C-Cap) DLGKKLLEAARAGQDDEVRILMANGADVNAMDKYGSTPLHLAARSGHLEIVEVLLKHGADVNATDFIGDTPLHLAAYHGHLEIVEVLLKHGADVNAEDITGETPLHLAAESGHLEIVEVLLKHGADVNAQDKFGKTAFDISIDNGNEDLAEILQKLN |  |  |  |  |  |  |  | 0.0464 | 0.000224 | 4.82e+06 | 0.0106 | 0.0027 | 0.159 | 0.048
